In this experiment the target is complement factor C1q (UniProt P02745). The experiment is described as follows: flow cytometry: BT-474 cells with 10 µg/mL antibody, then 10 µg/mL C1q, detected with PE-labeled anti-C1q antibody.
Sequence of complement factor C1q (P02745 23-245 limits assumed, chain 1 of 3): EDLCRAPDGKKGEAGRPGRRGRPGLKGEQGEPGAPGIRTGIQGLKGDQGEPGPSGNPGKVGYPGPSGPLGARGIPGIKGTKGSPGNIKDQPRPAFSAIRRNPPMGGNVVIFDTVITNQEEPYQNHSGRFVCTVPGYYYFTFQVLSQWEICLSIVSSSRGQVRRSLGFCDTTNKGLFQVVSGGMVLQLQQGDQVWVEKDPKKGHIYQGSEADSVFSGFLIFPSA
Sequence of complement factor C1q (P02746 28-253 limits assumed, chain 2 of 3, further chain): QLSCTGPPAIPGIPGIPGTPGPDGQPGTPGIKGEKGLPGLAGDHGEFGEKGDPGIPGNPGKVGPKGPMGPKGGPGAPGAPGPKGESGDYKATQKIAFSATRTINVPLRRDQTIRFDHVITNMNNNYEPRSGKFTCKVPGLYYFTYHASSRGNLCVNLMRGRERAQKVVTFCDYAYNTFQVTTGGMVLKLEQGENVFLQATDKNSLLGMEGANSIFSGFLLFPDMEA
Sequence of complement factor C1q (P02747 29-245 limits assumed, chain 3 of 3, further chain): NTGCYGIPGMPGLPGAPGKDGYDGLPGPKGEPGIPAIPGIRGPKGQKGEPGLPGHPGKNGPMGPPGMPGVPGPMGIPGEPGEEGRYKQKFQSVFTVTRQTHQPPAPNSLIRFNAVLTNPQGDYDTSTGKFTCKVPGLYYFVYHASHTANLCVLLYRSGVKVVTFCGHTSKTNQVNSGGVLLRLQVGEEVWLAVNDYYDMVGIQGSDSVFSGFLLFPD

As for “combination of trastuzumab and pertuzumab (from UniProt P0DOX5 2-449; P0DOX5 2-449)”, the PE-signal (geomean) (geomean PE-signal) is 2160.
